Experimental findings from patent US20140087995A1 (published 2014) are described below.

Sequences and labels used below:
B1: N^ε1-[2-[2-[2-[[(4S)-4-carboxy-4-(19-carboxynonadecanoylamino)butanoyl]amino]ethoxy]ethoxy]acetyl]-[Ser14,Arg17,Pro21,Pro27,Pro31]-h-amylin (peptide)
peptide: K([AEEA-γGlu-C20 diacid])CNTATCATQRLASFLRHSSPNFGAIPSSTPVGSNTY-NH2
modifications: disulfide 2-7; N-terminus assumed
SMILES: CC[C@H](C)[C@H](NC(=O)[C@H](C)NC(=O)CNC(=O)[C@H](Cc1ccccc1)NC(=O)[C@H](CC(N)=O)NC(=O)[C@@H]1CCCN1C(=O)[C@H](CO)NC(=O)[C@H](CO)NC(=O)[C@H](Cc1c[nH]cn1)NC(=O)[C@H](CCCNC(=N)N)NC(=O)[C@H](CC(C)C)NC(=O)[C@H](Cc1ccccc1)NC(=O)[C@H](CO)NC(=O)[C@H](C)NC(=O)[C@H](CC(C)C)NC(=O)[C@H](CCCNC(=N)N)NC(=O)[C@H](CCC(N)=O)NC(=O)[C@@H](NC(=O)[C@H](C)NC(=O)[C@@H]1CSSC[C@H](NC(=O)[C@@H](N)CCCCNC(=O)COCCOCCNC(=O)CC[C@H](NC(=O)CCCCCCCCCCCCCCCCCCC(=O)O)C(=O)O)C(=O)N[C@@H](CC(N)=O)C(=O)N[C@@H]([C@@H](C)O)C(=O)N[C@@H](C)C(=O)N[C@@H]([C@@H](C)O)C(=O)N1)[C@@H](C)O)C(=O)N1CCC[C@H]1C(=O)N[C@@H](CO)C(=O)N[C@@H](CO)C(=O)N[C@H](C(=O)N1CCC[C@H]1C(=O)N[C@H](C(=O)NCC(=O)N[C@@H](CO)C(=O)N[C@@H](CC(N)=O)C(=O)N[C@H](C(=O)N[C@@H](Cc1ccc(O)cc1)C(N)=O)[C@@H](C)O)C(C)C)[C@@H](C)O
notes: also called compound 73
B2: N^ε1-[(4S)-4-carboxy-4-(19-carboxynonadecanoylamino)butanoyl]-[Arg14,Arg17,Pro21,Pro27,Pro34]-h-amylin (peptide)
peptide: K([γGlu-C20 diacid])CNTATCATQRLARFLRHSSPNFGAIPSSTNVGPNTY-NH2
modifications: disulfide 2-7; N-terminus assumed
SMILES: CC[C@H](C)[C@H](NC(=O)[C@H](C)NC(=O)CNC(=O)[C@H](Cc1ccccc1)NC(=O)[C@H](CC(N)=O)NC(=O)[C@@H]1CCCN1C(=O)[C@H](CO)NC(=O)[C@H](CO)NC(=O)[C@H](Cc1c[nH]cn1)NC(=O)[C@H](CCCNC(=N)N)NC(=O)[C@H](CC(C)C)NC(=O)[C@H](Cc1ccccc1)NC(=O)[C@H](CCCNC(=N)N)NC(=O)[C@H](C)NC(=O)[C@H](CC(C)C)NC(=O)[C@H](CCCNC(=N)N)NC(=O)[C@H](CCC(N)=O)NC(=O)[C@@H](NC(=O)[C@H](C)NC(=O)[C@@H]1CSSC[C@H](NC(=O)[C@@H](N)CCCCNC(=O)CC[C@H](NC(=O)CCCCCCCCCCCCCCCCCCC(=O)O)C(=O)O)C(=O)N[C@@H](CC(N)=O)C(=O)N[C@@H]([C@@H](C)O)C(=O)N[C@@H](C)C(=O)N[C@@H]([C@@H](C)O)C(=O)N1)[C@@H](C)O)C(=O)N1CCC[C@H]1C(=O)N[C@@H](CO)C(=O)N[C@@H](CO)C(=O)N[C@H](C(=O)N[C@@H](CC(N)=O)C(=O)N[C@H](C(=O)NCC(=O)N1CCC[C@H]1C(=O)N[C@@H](CC(N)=O)C(=O)N[C@H](C(=O)N[C@@H](Cc1ccc(O)cc1)C(N)=O)[C@@H](C)O)C(C)C)[C@@H](C)O
notes: also called compound 65
B3: N^ε1-[(4S)-4-carboxy-4-(19-carboxynonadecanoylamino)butanoyl]-[Arg17,Pro21,Pro27,His35]-h-amylin (peptide)
peptide: K([γGlu-C20 diacid])CNTATCATQRLANFLRHSSPNFGAIPSSTNVGSHTY-NH2
modifications: disulfide 2-7; N-terminus assumed
SMILES: CC[C@H](C)[C@H](NC(=O)[C@H](C)NC(=O)CNC(=O)[C@H](Cc1ccccc1)NC(=O)[C@H](CC(N)=O)NC(=O)[C@@H]1CCCN1C(=O)[C@H](CO)NC(=O)[C@H](CO)NC(=O)[C@H](Cc1c[nH]cn1)NC(=O)[C@H](CCCNC(=N)N)NC(=O)[C@H](CC(C)C)NC(=O)[C@H](Cc1ccccc1)NC(=O)[C@H](CC(N)=O)NC(=O)[C@H](C)NC(=O)[C@H](CC(C)C)NC(=O)[C@H](CCCNC(=N)N)NC(=O)[C@H](CCC(N)=O)NC(=O)[C@@H](NC(=O)[C@H](C)NC(=O)[C@@H]1CSSC[C@H](NC(=O)[C@@H](N)CCCCNC(=O)CC[C@H](NC(=O)CCCCCCCCCCCCCCCCCCC(=O)O)C(=O)O)C(=O)N[C@@H](CC(N)=O)C(=O)N[C@@H]([C@@H](C)O)C(=O)N[C@@H](C)C(=O)N[C@@H]([C@@H](C)O)C(=O)N1)[C@@H](C)O)C(=O)N1CCC[C@H]1C(=O)N[C@@H](CO)C(=O)N[C@@H](CO)C(=O)N[C@H](C(=O)N[C@@H](CC(N)=O)C(=O)N[C@H](C(=O)NCC(=O)N[C@@H](CO)C(=O)N[C@@H](Cc1c[nH]cn1)C(=O)N[C@H](C(=O)N[C@@H](Cc1ccc(O)cc1)C(N)=O)[C@@H](C)O)C(C)C)[C@@H](C)O
notes: also called compound 60
B4: N^ε1-[(4S)-4-carboxy-4-(19-carboxynonadecanoylamino)butanoyl]-[Arg17,Pro21,Pro27,Lys35]-h-amylin (peptide)
peptide: K([γGlu-C20 diacid])CNTATCATQRLANFLRHSSPNFGAIPSSTNVGSKTY-NH2
modifications: disulfide 2-7; N-terminus assumed
SMILES: CC[C@H](C)[C@H](NC(=O)[C@H](C)NC(=O)CNC(=O)[C@H](Cc1ccccc1)NC(=O)[C@H](CC(N)=O)NC(=O)[C@@H]1CCCN1C(=O)[C@H](CO)NC(=O)[C@H](CO)NC(=O)[C@H](Cc1c[nH]cn1)NC(=O)[C@H](CCCNC(=N)N)NC(=O)[C@H](CC(C)C)NC(=O)[C@H](Cc1ccccc1)NC(=O)[C@H](CC(N)=O)NC(=O)[C@H](C)NC(=O)[C@H](CC(C)C)NC(=O)[C@H](CCCNC(=N)N)NC(=O)[C@H](CCC(N)=O)NC(=O)[C@@H](NC(=O)[C@H](C)NC(=O)[C@@H]1CSSC[C@H](NC(=O)[C@@H](N)CCCCNC(=O)CC[C@H](NC(=O)CCCCCCCCCCCCCCCCCCC(=O)O)C(=O)O)C(=O)N[C@@H](CC(N)=O)C(=O)N[C@@H]([C@@H](C)O)C(=O)N[C@@H](C)C(=O)N[C@@H]([C@@H](C)O)C(=O)N1)[C@@H](C)O)C(=O)N1CCC[C@H]1C(=O)N[C@@H](CO)C(=O)N[C@@H](CO)C(=O)N[C@H](C(=O)N[C@@H](CC(N)=O)C(=O)N[C@H](C(=O)NCC(=O)N[C@@H](CO)C(=O)N[C@@H](CCCCN)C(=O)N[C@H](C(=O)N[C@@H](Cc1ccc(O)cc1)C(N)=O)[C@@H](C)O)C(C)C)[C@@H](C)O
notes: also called compound 35
B5: N^ε1-[(4S)-4-carboxy-4-(19-carboxynonadecanoylamino)butanoyl]-[Arg17,Pro21,Pro27,Glu35]-h-amylin (peptide)
peptide: K([γGlu-C20 diacid])CNTATCATQRLANFLRHSSPNFGAIPSSTNVGSETY-NH2
modifications: disulfide 2-7; N-terminus assumed
SMILES: CC[C@H](C)[C@H](NC(=O)[C@H](C)NC(=O)CNC(=O)[C@H](Cc1ccccc1)NC(=O)[C@H](CC(N)=O)NC(=O)[C@@H]1CCCN1C(=O)[C@H](CO)NC(=O)[C@H](CO)NC(=O)[C@H](Cc1c[nH]cn1)NC(=O)[C@H](CCCNC(=N)N)NC(=O)[C@H](CC(C)C)NC(=O)[C@H](Cc1ccccc1)NC(=O)[C@H](CC(N)=O)NC(=O)[C@H](C)NC(=O)[C@H](CC(C)C)NC(=O)[C@H](CCCNC(=N)N)NC(=O)[C@H](CCC(N)=O)NC(=O)[C@@H](NC(=O)[C@H](C)NC(=O)[C@@H]1CSSC[C@H](NC(=O)[C@@H](N)CCCCNC(=O)CC[C@H](NC(=O)CCCCCCCCCCCCCCCCCCC(=O)O)C(=O)O)C(=O)N[C@@H](CC(N)=O)C(=O)N[C@@H]([C@@H](C)O)C(=O)N[C@@H](C)C(=O)N[C@@H]([C@@H](C)O)C(=O)N1)[C@@H](C)O)C(=O)N1CCC[C@H]1C(=O)N[C@@H](CO)C(=O)N[C@@H](CO)C(=O)N[C@H](C(=O)N[C@@H](CC(N)=O)C(=O)N[C@H](C(=O)NCC(=O)N[C@@H](CO)C(=O)N[C@@H](CCC(=O)O)C(=O)N[C@H](C(=O)N[C@@H](Cc1ccc(O)cc1)C(N)=O)[C@@H](C)O)C(C)C)[C@@H](C)O
notes: also called compound 27
B6: N^ε1-[(4S)-4-carboxy-4-(19-carboxynonadecanoylamino)butanoyl]-[Arg14,Arg17,Pro21,Pro27,Pro31]-h-amylin (peptide)
peptide: K([γGlu-C20 diacid])CNTATCATQRLARFLRHSSPNFGAIPSSTPVGSNTY-NH2
modifications: disulfide 2-7; N-terminus assumed
SMILES: CC[C@H](C)[C@H](NC(=O)[C@H](C)NC(=O)CNC(=O)[C@H](Cc1ccccc1)NC(=O)[C@H](CC(N)=O)NC(=O)[C@@H]1CCCN1C(=O)[C@H](CO)NC(=O)[C@H](CO)NC(=O)[C@H](Cc1c[nH]cn1)NC(=O)[C@H](CCCNC(=N)N)NC(=O)[C@H](CC(C)C)NC(=O)[C@H](Cc1ccccc1)NC(=O)[C@H](CCCNC(=N)N)NC(=O)[C@H](C)NC(=O)[C@H](CC(C)C)NC(=O)[C@H](CCCNC(=N)N)NC(=O)[C@H](CCC(N)=O)NC(=O)[C@@H](NC(=O)[C@H](C)NC(=O)[C@@H]1CSSC[C@H](NC(=O)[C@@H](N)CCCCNC(=O)CC[C@H](NC(=O)CCCCCCCCCCCCCCCCCCC(=O)O)C(=O)O)C(=O)N[C@@H](CC(N)=O)C(=O)N[C@@H]([C@@H](C)O)C(=O)N[C@@H](C)C(=O)N[C@@H]([C@@H](C)O)C(=O)N1)[C@@H](C)O)C(=O)N1CCC[C@H]1C(=O)N[C@@H](CO)C(=O)N[C@@H](CO)C(=O)N[C@H](C(=O)N1CCC[C@H]1C(=O)N[C@H](C(=O)NCC(=O)N[C@@H](CO)C(=O)N[C@@H](CC(N)=O)C(=O)N[C@H](C(=O)N[C@@H](Cc1ccc(O)cc1)C(N)=O)[C@@H](C)O)C(C)C)[C@@H](C)O
notes: also called compound 63

Numbered stars: 1 amine (or outer) side, 2 acyl side, 3 side chain; on linkers, the order of the positions; unused ones are H or OH. Bridge positions count the residues as written; N and C are the ends. Side chains are listed from the residue outwards. Ends that are not written are not given here. * marks the point of attachment. C20 diacid = O=C(O)CCCCCCCCCCCCCCCCCCC(=O)*; γGlu = O=C(O)[C@H](CCC(=O)[*:2])N[*:1]; AEEA = NCCOCCOCC(=O)O

The assay deals with T1, human calcitonin receptor (human, UniProt P30988 25-474).
T1 construct: whole, on cells; also called hCTR; hCT
T1 sequence (looked up): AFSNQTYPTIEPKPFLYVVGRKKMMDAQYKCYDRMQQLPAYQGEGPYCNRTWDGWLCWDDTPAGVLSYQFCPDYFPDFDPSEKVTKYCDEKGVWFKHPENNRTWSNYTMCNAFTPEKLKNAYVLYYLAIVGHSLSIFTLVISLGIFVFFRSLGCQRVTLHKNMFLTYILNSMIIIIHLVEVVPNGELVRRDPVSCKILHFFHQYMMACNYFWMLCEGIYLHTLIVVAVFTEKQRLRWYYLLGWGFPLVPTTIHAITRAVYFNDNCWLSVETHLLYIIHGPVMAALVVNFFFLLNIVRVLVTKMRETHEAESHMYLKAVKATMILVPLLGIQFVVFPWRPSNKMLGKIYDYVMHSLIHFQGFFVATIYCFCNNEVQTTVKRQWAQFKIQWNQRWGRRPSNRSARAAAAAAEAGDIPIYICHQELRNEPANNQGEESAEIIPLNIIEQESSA
Kind of assay: SPA competition with 125I-calcitonin, membranes of BHK hCTR cells (Assay VII). Summed up: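 BHK hCTR membranes 35 ng/μL + SPA beads 0.05 mg/well; buffer 50 mM Hepes pH 7.4, 1 mM CaCl2, 5 mM MgCl₂, 0.1% OA, 0.02% Tween20. 120 min, 25° C., shaking. Scintillation count; IC50 by one-site binding competition.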
A word on the IC50: it is the midpoint of a concentration-inhibition curve. Take B1: the IC50 came out at 5.38 nM.

B2: the IC50 is 53.5 nM.

Consider B3, for which the IC50 came out at 31.4 nM.

For B4, the IC50 is 48.8 nM.

Turning to B5, the IC50 is 34.5 nM.

For B6, the IC50 stood at 130 nM.
